# Reference: US7217548B2, “N-acetylglucosaminlytransferase and polynucleotide encoding the same” (National Institute of Advanced Industrial Science and …, priority 2000, dated 2007)
# T1: GnT-I (Homo sapiens, UniProt P26572)
# T1 construct: Ig kappa chain secretory signal (N); made in house; host or cells: HEK293T (transient, secreted into serum-free medium)
# T1 sequence (P26572 39-445 limits assumed): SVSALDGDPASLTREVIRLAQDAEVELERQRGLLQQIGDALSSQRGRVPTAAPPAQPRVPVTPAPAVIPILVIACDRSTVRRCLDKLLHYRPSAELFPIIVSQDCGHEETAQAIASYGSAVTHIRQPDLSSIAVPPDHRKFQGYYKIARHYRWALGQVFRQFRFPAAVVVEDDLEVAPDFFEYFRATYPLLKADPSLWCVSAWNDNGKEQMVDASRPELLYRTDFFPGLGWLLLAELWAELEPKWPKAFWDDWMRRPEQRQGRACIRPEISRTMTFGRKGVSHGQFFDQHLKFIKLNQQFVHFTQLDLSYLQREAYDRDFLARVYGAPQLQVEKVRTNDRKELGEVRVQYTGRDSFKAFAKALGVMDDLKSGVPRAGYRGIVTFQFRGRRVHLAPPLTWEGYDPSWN
# Columns and labels:
# OMGnT = OMGnT activity in serum-free medium of HEK293T cells expressing solubilized enzymes; assay type: biochemical, human; details: serum-free medium of HEK293T transfectants
# Procedure: The enzyme solution was added to 140 mM MES [2-(N-morpholino) ethanesulfonic acid] buffer (pH 7.0) containing 0.4 mM Man-peptide, 0.2 mM UDP-[^3H]GlcNAc (up to 228,000 dpm/nmol), 10 mM MnCl2, 5 mM AMP, 200 mM GlcNAc, 2%(w/v) Triton X-100, 10% glycerol, 2 μg/ml antipain, 2 μg/ml chymostatin, 3 μg/ml pepstatin A, 2 μg/ml leupeptin, 1 mM benzamidine-HCl, and 1 mM PMSF (phenylmethylsulfonyl fluoride) to prepare 50 μl of reaction solution. After the reaction at 37° C. for 3 hours, the reaction was terminated by 3 minutes of boiling. The reaction mixture was then filtered with a filter Ultrafree-MC (Millipore) having a pore size of 0.22 μm to remove solids, and analyzed by Wakopak 5C18-200 column (4.6×250 mm, Wako Pure Chemical Industries, Ltd.). The separation was carried out using concentration gradient with Solution A and Solution B at a flow rate of 1.0 ml/min. […] Peptide detection was carried out at 214 nm, and the radioactivity of each fraction was assayed using a liquid scintillation counter.
# Each secretory expression plasmid was transiently expressed in a HEK293T cell derived from human embryonic kidney. Usually, HEK293T cells were cultured in D-MEM (Gibco, #11995-065) containing 10% Fetal Calf Serum (Hyclone), 10 mM MEM Non-Essential Amino Acids solution (Gibco), 2 mM Glutamine (Gibco), and 100 units/ml Penicillin/100 μg/ml Streptomycin (Gibco). In a 6-well plate, 2 μg of plasmid was transfected into 50 to 70% confluent cells by calcium phosphate method. After overnight cultivation, the medium exchange was performed and the cultivation was continued for 48 hours [Pear, W. S., Nolan, G. P., Scott, M. L. and Baltimore, D., Proc. Natl. Acad. Sci. USA, (1993), 90, 8392–8396]. Further, the medium was exchanged with a serum-free medium, and after 48-hour cultivation, the supernatant was collected.
# According to the method described in Example 1, OMGnT activity in the serum-free medium was assayed.
# GnT-I = biological target: T1, GnT-I; test: GnT-I activity assay of solubilized enzymes; assay type: biochemical; details: method of Reference Example 2
# Procedure: The activity of GnT-1 was assayed with a method by Yoshida et al. [Yoshida, S., Suzuki, M., Yamano, S., Takeuchi, M., Ikenaga, H., Kioka, N., Sakai, H., and Komano, T., Glycobiology, (1999), 9, 53–58] as described below. A 20 μl reaction solution was prepared by adding an enzyme source thereto so as to have a final concentration of 100 mM MES (pH 6.0), 20 mM MnCl2, 5 μM Manα1–6(Manα1–3)Manα1–6(Manα1–3)Manβ1–4GlcNAcβ1–4GlcNAc-PA(M5GN2-PA; Takara Shuzo, PA-Sugar Chain 017), 1 mM UDP-GlcNAc, 100 mM GlcNAc, 5 mM AMP, 1% Triton X-100, and 0.2% BSA. The reaction solution was incubated at 37° C. for 1 hour, and the reaction was terminated in boiling water. Thereafter, the reaction solution was analyzed by a reverse phase HPLC (Cosmosil 5C18-AR column) available from Nacalai Tesque.
# When Manα1–6(Manα1–3)Manβ1–4GlcNAcβ1–4GlcNAc-PA (M3GN2-PA; Takara Shuzo, PA-Sugar Chain 016) was used as a sugar receptor, the same method was employed for analysis.
GnT-I activity (in words) (GnT-I),GnT-I activity (GnT-I) [pmol/hr/ml medium],Molecule,OMGnT activity (OMGnT) [pmol/hr/mg protein],OMGnT activity (in words) (OMGnT)
did not exhibit activity at all,,"His-Xpress-sOMGnT(S): solubilized human OMGnT, 414 amino acids 247:Ser to 660:Thr of SEQ ID NO: 2, secreted from HEK293T; plasmid named in Table 3 (protein, listed as Homo sapiens, His-Xpress tag) SSAEEAECHWADTELNRRRRRFCSKVEGYGSVCSCKDPTPIEFSPDPLPDNKVLNVPVAVIAGNRPNYLYRMLRSLLSAQGVSPQMITVFIDGYYEEPMDVVALFGLRGIQHTPISIKNARVSQHYKASLTATFNLFPEAKFAVVLEEDLDIAVDFFSFLSQSIHLLEEDDSLYCISAWNDQGYEHTAEDPALLYRVETMPGLGWVLRRSLYKEELEPKWPTPEKLWDWDMWMRMPEQRRGRECIIPDVSRSYHFGIVGLNMNGYFHEAYFKKHKFNTVPGVQLRNVDSLKKEAYEVEVHRLLSEAEVLDHSKNPCEDSFLPDTEGHTYVAFIRMEKDDDFTTWTQLAKCLHIWDLDVRGNHRGLWRLFRKKNHFLVVGVPASPYSVKKPPSVTPIFLEPPPKEEGAPGAPEQT",20,significantly high OMGnT activity
,500,"His-Xpress-sGnT-I: control: solubilized human GnT-I enzyme, 407 amino acids from 39:Ser (protein, left off: small tags and cut ends, control: solubilized human GnT-I enzyme, 407 amino acids from 39:Ser) SVSALDGDPASLTREVIRLAQDAEVELERQRGLLQQIGDALSSQRGRVPTAAPPAQPRVPVTPAPAVIPILVIACDRSTVRRCLDKLLHYRPSAELFPIIVSQDCGHEETAQAIASYGSAVTHIRQPDLSSIAVPPDHRKFQGYYKIARHYRWALGQVFRQFRFPAAVVVEDDLEVAPDFFEYFRATYPLLKADPSLWCVSAWNDNGKEQMVDASRPELLYRTDFFPGLGWLLLAELWAELEPKWPKAFWDDWMRRPEQRQGRACIRPEISRTMTFGRKGVSHGQFFDQHLKFIKLNQQFVHFTQLDLSYLQREAYDRDFLARVYGAPQLQVEKVRTNDRKELGEVRVQYTGRDSFKAFAKALGVMDDLKSGVPRAGYRGIVTFQFRGRRVHLAPPLTWEGYDPSWN",0.4,almost no activity
